Measurements: publication PMC11828899, “Structural insights into human brachyury DNA recognition and discovery of progressible binders for cancer therapy”
Where a chain is given by its changes, count along the chain named.

Key:
[1] = target: T1, Brachyury full-length WT (Homo sapiens, UniProt O15178 1-435); test: EMSA; apparent; Hill slope 2.3; DNA 1-5 nM; EMSA: 25 mM HEPES pH 7.4, 75 mM NaCl, 10% glycerol, 0.1% Tween 20, 1 mM TCEP, on ice 10 min; SPR: 10 mM HEPES pH 7.5, 150 mM NaCl, 1 mM DTT, 1% DMSO, temperature not stated; conditions: protein: recombinant; tags: C-terminal AVI tag, biotinylated; N-terminal 9His-GST removed with TEV (construct stated for SPR/DSF); chain copies: 2; label: 32P 5' end (EMSA); none stated (SPR); blunt
T1 sequence: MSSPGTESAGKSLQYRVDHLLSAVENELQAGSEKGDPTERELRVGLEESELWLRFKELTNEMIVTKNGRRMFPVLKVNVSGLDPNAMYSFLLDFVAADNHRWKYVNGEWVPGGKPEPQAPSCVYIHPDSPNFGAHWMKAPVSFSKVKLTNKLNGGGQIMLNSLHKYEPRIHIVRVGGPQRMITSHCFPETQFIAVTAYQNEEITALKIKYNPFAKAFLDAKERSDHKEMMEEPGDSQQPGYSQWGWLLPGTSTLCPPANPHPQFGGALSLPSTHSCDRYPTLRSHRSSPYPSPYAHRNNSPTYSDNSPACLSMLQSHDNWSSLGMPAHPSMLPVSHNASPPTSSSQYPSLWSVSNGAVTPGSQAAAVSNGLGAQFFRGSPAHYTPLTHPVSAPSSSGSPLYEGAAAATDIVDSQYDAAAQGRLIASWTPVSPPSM

[2] = target: T2, Brachyury full-length G177D (Homo sapiens, UniProt O15178 1-435, G177D); test: EMSA; apparent; Hill slope 1.8; DNA 1-5 nM; EMSA: 25 mM HEPES pH 7.4, 75 mM NaCl, 10% glycerol, 0.1% Tween 20, 1 mM TCEP, on ice 10 min; SPR: 10 mM HEPES pH 7.5, 150 mM NaCl, 1 mM DTT, 1% DMSO, temperature not stated; conditions: protein: recombinant; tags: C-terminal AVI tag, biotinylated; N-terminal 9His-GST removed with TEV (construct stated for SPR/DSF); chain copies: 2; label: 32P 5' end (EMSA); none stated (SPR); blunt
T2 sequence: T1 sequence with G177D

[3] = target: T2, Brachyury full-length G177D; test: SPR; protein immobilized; steady-state fit; EMSA: 25 mM HEPES pH 7.4, 75 mM NaCl, 10% glycerol, 0.1% Tween 20, 1 mM TCEP, on ice 10 min; SPR: 10 mM HEPES pH 7.5, 150 mM NaCl, 1 mM DTT, 1% DMSO, temperature not stated; conditions: protein: recombinant; tags: C-terminal AVI tag, biotinylated; N-terminal 9His-GST removed with TEV (construct stated for SPR/DSF); chain copies: 2; label: 32P 5' end (EMSA); none stated (SPR); blunt
[4] = target: T1, Brachyury full-length WT; test: as above; conditions: protein: recombinant; tags: C-terminal AVI tag, biotinylated; N-terminal 9His-GST removed with TEV (construct stated for SPR/DSF); chain copies: 2; label: 32P 5' end (EMSA); none stated (SPR); blunt
[5] = target: T3, Brachyury DNA binding domain G177D (Homo sapiens, UniProt O15178 41-224, G177D); test: X-ray crystallography; 2.15 A; two protomers per duplex; EMSA: 25 mM HEPES pH 7.4, 75 mM NaCl, 10% glycerol, 0.1% Tween 20, 1 mM TCEP, on ice 10 min; SPR: 10 mM HEPES pH 7.5, 150 mM NaCl, 1 mM DTT, 1% DMSO, temperature not stated; conditions: protein: recombinant; chain copies: 2; blunt, self-complementary, 2 copies of strand
T3 sequence: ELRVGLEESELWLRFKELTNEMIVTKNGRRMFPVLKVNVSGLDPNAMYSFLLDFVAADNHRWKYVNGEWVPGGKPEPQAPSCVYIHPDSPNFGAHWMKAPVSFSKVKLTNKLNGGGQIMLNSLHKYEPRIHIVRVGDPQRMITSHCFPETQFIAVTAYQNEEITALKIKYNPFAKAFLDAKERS

[6] = target: T4, Brachyury DNA binding domain WT (Homo sapiens, UniProt O15178 41-224); test: X-ray crystallography; 2.25 A; two protomers per duplex; EMSA: 25 mM HEPES pH 7.4, 75 mM NaCl, 10% glycerol, 0.1% Tween 20, 1 mM TCEP, on ice 10 min; SPR: 10 mM HEPES pH 7.5, 150 mM NaCl, 1 mM DTT, 1% DMSO, temperature not stated; conditions: protein: recombinant; chain copies: 2; blunt, self-complementary, 2 copies of strand
T4 sequence: T3 sequence with D137G

B1: TA50 palindromic 50 bp (TA50-F/TA50-R) (dsDNA)
DNA 1: CATGCATGCAGGGAATTTCACACCTAGGTGTGAAATTCCCATTCGTGCGA
DNA 2: TCGCACGAATGGGAATTTCACACCTAGGTGTGAAATTCCCTGCATGCATG
In the case of B1, the Kd [1] is reported as 1.4 nM, the Kd [2] is reported as 1.2 nM and the Kd [3] is reported as 17.9 nM. The Kd [4] was 14.8 ± 2.4 nM.

B2: 26 bp palindromic T-box DNA (dsDNA)
DNA 1: GAATTTCACACCTAGGTGTGAAATTC
DNA 2: GAATTTCACACCTAGGTGTGAAATTC
B2: binds [5].

B3: 24 bp palindromic T-box DNA (dsDNA)
DNA 1: AATTTCACACCTAGGTGTGAAATT
DNA 2: AATTTCACACCTAGGTGTGAAATT
B3: binds [6].
